Laboratory results as given in PMC10987460, “Impact of different models based on blood samples and images for bone marrow dosimetry after ^177Lu-labeled somatostatin-receptor therapy” (EJNMMI Physics, 2024).

How the values were obtained:
[1] = human, in vivo; cited from earlier work
Source text: Peptide receptor radionuclide therapy (PRRT) with ^177Lu-DOTATATE or ^177Lu-oxodotreotide, a somatostatin analog radiolabeled with ^177Lu, is a recognized therapeutic option for metastatic or symptomatic patients with midgut WHO grade I-II neuroendocrine tumors. […] The standard treatment consists in four intravenous injections of 7.4 GBq of ^177Lu-DOTATATE administered every 8 weeks. This the ...

[2] = design: species or system patients; settings: in vivo
Procedure: A retrospective study was conducted on 59 patients treated in our institution for neuroendocrine tumors (NET) with ^177Lu-DOTATATE (Lutathera ®) between 2019 and 2021. In a standard study, patients received 4 cycles of ^177Lu-DOTATATE at the recommended activity of 7400 MBq during a 30-min intravenous perfusion. The interval between each cycle was eight weeks. The study was declared to the Health Data Hub (number: F20230102114415).
Six to nine blood samples were collected at 0.5, 1, 2, 4, 8, 16, 24, 72 and 144 h post-injection in each patient. Blood was collected in the arm contralateral to that in which ^177Lu-DOTATATE was injected. Blood samples were centrifuged at 1000xg for 10 min at ambient temperature. Radioactivity was measured in 1 ml aliquots of plasma using a WIZARD^2™ 2480-0010 Gamma Counter (Perkin Elmer, MS, USA). A calibration curve with ^177Lu-DOTATATE was established to normalize the data obtained with the gamma counter. Radioactivity-time data were expressed in MBq/L after correction for radioactive decay between the time of the sampling and the measurement according to the equation: C(t)corr=C(t)measured×e^-Ln2/T1/2,177Lu(tmeasured-t) where C(t)corr is ^177Lu-Dotatate concentration at time t corrected for radioactive decay, C(t)measured is the ^177Lu-Dotatate concentration measured at time tmeasured, T1/2,^177Lu is the half-time disintegration of ^177Lu and T0 is the time of ^177Lu-Dotatate injection.
For the blood-based method, the activity concentration was fitted by a mono-, bi- or tri- exponential curve to infinity to estimate the area under the curve (AUC) using an in-house Python program (Python 3.10, numpy and matplotlib libraries). […]
To estimate the influence of the late timepoints for the blood-based method, we estimated the absorbed dose with only the timepoints before 24 h post-injection. For the image-based method, we kept only three timepoints by deleting the last one and compared the absorbed dose to the one calculated with all the timepoints.

[3] = in vivo; cited from earlier work
Source text: Table 1 Literature review of absorbed dose in bone marrow for ^177Lu-PRRT | column: Bone marrow absorbed dose (Gy/GBq) || Recently, the EANM dosimetry committee published its recommendations for the dosimetry of ^177Lu-labeled somatostatin-receptor and PSMA-targeting ligands. For ^177Lu-PRRT, the median value for the red marrow absorbed dose across all the studies is 50 mGy/GBq. The total-body time activity curve (TAC) is generally biphasic, as is the case for the blood TAC. The recommendation for dosimetry is to measure the activity concentration in the blood even if sequential planar or SPECT/CT whole-body imaging is also possible. || The median absorbed dose ranged from 15.3 to 63.9 mGy/GBq depending on the method used, which is coherent with the median literature value of 50 mGy/GBq (range 2 to 150 mGy/GBq) (see Table 1). With the blood-based method, the tri-exponential model gave a higher median absorbed dose than the bi-exponential model, which also gave a higher median dose than the mono-exponential model. The tri-exponential model was not always accurate and sometimes gave an infinite AUC, that is maybe due to the low number of points especially for the image-based method where we only have 4 points.

C[C@@H](O)[C@H](NC(=O)[C@@H]1CSSC[C@H](NC(=O)[C@@H](Cc2ccccc2)NC(=O)CN2CCN(CC(=O)O)CCN(CC(=O)O)CCN(CC(=O)O)CC2)C(=O)N[C@@H](Cc2ccc(O)cc2)C(=O)N[C@H](Cc2c[nH]c3ccccc23)C(=O)N[C@@H](CCCCN)C(=O)N[C@@H]([C@@H](C)O)C(=O)N1)C(=O)O [^177Lu-DOTATATE, metal not drawn]
Grade 3 or 4 lymphopenia [1]: 9% | Grade 3 or 4 thrombopenia [1]: 2% | Leukemia, treated patients [1]: about 1% | Myelodysplastic syndrome (MDS), treated patients [1]: about 2% | Effective half-life, first phase [2]: 12 to 348 min | Effective half-life, second phase [2]: 96 to 2080 min | Median absorbed dose (bone marrow), range over methods and models [2]: 15.3-63.9 mGy/GBq | Median value for the red marrow absorbed dose across all the studies [3]: 50 mGy/GBq | Range of literature red marrow absorbed dose [3]: 2-150 mGy/GBq
